B1: THAP1; numbered along this chain (parent)
chain: MVQSCSAYGCKNRYDKDKPVSFHKFPLTRPSLCKEWEAAVRRKNFKPTKYSSICSEHFTPDCFKRECNNKLLKENAVPTIFLCTEPHDKKEDLLEPQEQLPPPPLPPPVSQVDAAIGLLMPPLQTPVNLSVFCDHNYTVEDTMHQRKRIHQLEQQVEKLRKKLKTAQQRCRRQERQLEKLKEVVHFQKEKDDVSERGYVILPNDYFEIVEVPA

Variants of: B1
Experiment: THAP1 transcriptional activity (GFP+/GFP- enrichment relative to wild-type constructs) (ratio to WT); higher = more THAP1 activity (PSMB5 reporter activation)
Conditions: with PSMB5 promoter-GFP reporter
Method in brief: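 Activity values are replicate-mean bright/dim read fold changes divided by the mean of wild-type synonymous constructs. They come from a human THAP1 site-saturation library (residues 2–213, each changed to all 20 amino acids) delivered by lentivirus at MOI ~0.3, in duplicate, into THAP1-knockout HEK-293T cells with mClover3 at endogenous PSMB5. BFP+ cells were sorted into GFP-dim and GFP-bright bins after five days, and variants were counted by Illumina sequencing of genomic DNA amplicons.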

Variant	THAP1 transcriptional activity
MVQSCSAYGCKNRYDKDKPVSFHKFPLTRPSLCKEWEAAVRRKNFKPTKYSSICSEHFTPDCFKRECNNKLLKENAVPTIFLSTEPHDKKEDLLEPQEQLPPPPLPPPVSQVDAAIGLLMPPLQTPVNLSVFCDHNYTVEDTMHQRKRIHQLEQQVEKLRKKLKTAQQRCRRQERQLEKLKEVVHFQKEKDDVSERGYVILPNDYFEIVEVPA [C83S]	1.05
MVQSCSAYGCKNRYDKDKPVSFHKFPLTRPSLCKEWEAAVRRKNFKPTKYSSICSEHFTPDCFKRECNNKLLKENAVPTIFLQTEPHDKKEDLLEPQEQLPPPPLPPPVSQVDAAIGLLMPPLQTPVNLSVFCDHNYTVEDTMHQRKRIHQLEQQVEKLRKKLKTAQQRCRRQERQLEKLKEVVHFQKEKDDVSERGYVILPNDYFEIVEVPA [C83Q]	3.29
MVQSCSAYGCKNRYDKDKPVSFHKFPLTRPSLCKEWEAAVRRKNFKPTKYSSICSEHFTPDCFKRECNNKLLKENAVPTIFLPTEPHDKKEDLLEPQEQLPPPPLPPPVSQVDAAIGLLMPPLQTPVNLSVFCDHNYTVEDTMHQRKRIHQLEQQVEKLRKKLKTAQQRCRRQERQLEKLKEVVHFQKEKDDVSERGYVILPNDYFEIVEVPA [C83P]	0.676
MVQSCSAYGCKNRYDKDKPVSFHKFPLTRPSLCKEWEAAVRRKNFKPTKYSSICSEHFTPDCFKRECNNKLLKENAVPTIFLNTEPHDKKEDLLEPQEQLPPPPLPPPVSQVDAAIGLLMPPLQTPVNLSVFCDHNYTVEDTMHQRKRIHQLEQQVEKLRKKLKTAQQRCRRQERQLEKLKEVVHFQKEKDDVSERGYVILPNDYFEIVEVPA [C83N]	1.13
MVQSCSAYGCKNRYDKDKPVSFHKFPLTRPSLCKEWEAAVRRKNFKPTKYSSICSEHFTPDCFKRECNNKLLKENAVPTIFLYTEPHDKKEDLLEPQEQLPPPPLPPPVSQVDAAIGLLMPPLQTPVNLSVFCDHNYTVEDTMHQRKRIHQLEQQVEKLRKKLKTAQQRCRRQERQLEKLKEVVHFQKEKDDVSERGYVILPNDYFEIVEVPA [C83Y]	2.11
MVQSCSAYGCKNRYDKDKPVSFHKFPLTRPSLCKEWEAAVRRKNFKPTKYSSICSEHFTPDCFKRECNNKLLKENAVPTIFLGTEPHDKKEDLLEPQEQLPPPPLPPPVSQVDAAIGLLMPPLQTPVNLSVFCDHNYTVEDTMHQRKRIHQLEQQVEKLRKKLKTAQQRCRRQERQLEKLKEVVHFQKEKDDVSERGYVILPNDYFEIVEVPA [C83G]	1.18
MVQSCSAYGCKNRYDKDKPVSFHKFPLTRPSLCKEWEAAVRRKNFKPTKYSSICSEHFTPDCFKRECNNKLLKENAVPTIFLFTEPHDKKEDLLEPQEQLPPPPLPPPVSQVDAAIGLLMPPLQTPVNLSVFCDHNYTVEDTMHQRKRIHQLEQQVEKLRKKLKTAQQRCRRQERQLEKLKEVVHFQKEKDDVSERGYVILPNDYFEIVEVPA [C83F]	1.21
MVQSCSAYGCKNRYDKDKPVSFHKFPLTRPSLCKEWEAAVRRKNFKPTKYSSICSEHFTPDCFKRECNNKLLKENAVPTIFLTTEPHDKKEDLLEPQEQLPPPPLPPPVSQVDAAIGLLMPPLQTPVNLSVFCDHNYTVEDTMHQRKRIHQLEQQVEKLRKKLKTAQQRCRRQERQLEKLKEVVHFQKEKDDVSERGYVILPNDYFEIVEVPA [C83T]	1.67
MVQSCSAYGCKNRYDKDKPVSFHKFPLTRPSLCKEWEAAVRRKNFKPTKYSSICSEHFTPDCFKRECNNKLLKENAVPTIFLHTEPHDKKEDLLEPQEQLPPPPLPPPVSQVDAAIGLLMPPLQTPVNLSVFCDHNYTVEDTMHQRKRIHQLEQQVEKLRKKLKTAQQRCRRQERQLEKLKEVVHFQKEKDDVSERGYVILPNDYFEIVEVPA [C83H]	2.25
MVQSCSAYGCKNRYDKDKPVSFHKFPLTRPSLCKEWEAAVRRKNFKPTKYSSICSEHFTPDCFKRECNNKLLKENAVPTIFLMTEPHDKKEDLLEPQEQLPPPPLPPPVSQVDAAIGLLMPPLQTPVNLSVFCDHNYTVEDTMHQRKRIHQLEQQVEKLRKKLKTAQQRCRRQERQLEKLKEVVHFQKEKDDVSERGYVILPNDYFEIVEVPA [C83M]	0.953
MVQSCSAYGCKNRYDKDKPVSFHKFPLTRPSLCKEWEAAVRRKNFKPTKYSSICSEHFTPDCFKRECNNKLLKENAVPTIFLVTEPHDKKEDLLEPQEQLPPPPLPPPVSQVDAAIGLLMPPLQTPVNLSVFCDHNYTVEDTMHQRKRIHQLEQQVEKLRKKLKTAQQRCRRQERQLEKLKEVVHFQKEKDDVSERGYVILPNDYFEIVEVPA [C83V]	1.41
MVQSCSAYGCKNRYDKDKPVSFHKFPLTRPSLCKEWEAAVRRKNFKPTKYSSICSEHFTPDCFKRECNNKLLKENAVPTIFLKTEPHDKKEDLLEPQEQLPPPPLPPPVSQVDAAIGLLMPPLQTPVNLSVFCDHNYTVEDTMHQRKRIHQLEQQVEKLRKKLKTAQQRCRRQERQLEKLKEVVHFQKEKDDVSERGYVILPNDYFEIVEVPA [C83K]	1
MVQSCSAYGCKNRYDKDKPVSFHKFPLTRPSLCKEWEAAVRRKNFKPTKYSSICSEHFTPDCFKRECNNKLLKENAVPTIFLRTEPHDKKEDLLEPQEQLPPPPLPPPVSQVDAAIGLLMPPLQTPVNLSVFCDHNYTVEDTMHQRKRIHQLEQQVEKLRKKLKTAQQRCRRQERQLEKLKEVVHFQKEKDDVSERGYVILPNDYFEIVEVPA [C83R]	1.54
MVQSCSAYGCKNRYDKDKPVSFHKFPLTRPSLCKEWEAAVRRKNFKPTKYSSICSEHFTPDCFKRECNNKLLKENAVPTIFLITEPHDKKEDLLEPQEQLPPPPLPPPVSQVDAAIGLLMPPLQTPVNLSVFCDHNYTVEDTMHQRKRIHQLEQQVEKLRKKLKTAQQRCRRQERQLEKLKEVVHFQKEKDDVSERGYVILPNDYFEIVEVPA [C83I]	1.18

From the supplement of paper PMC11811203
